Experimental findings from the supplement of paper PMC7125110 are described below.

± gives the standard error. For some assays here: This sample holds only a part of the variants without activity.

First the molecules themselves.
B1: glmS ribozyme (parent)
chain: AUAAAAGCGCCAGAACUACAGAAAUGUAGUUGACGAGGAGGAGGUUUAUCGAAUUUUCGGCGGAUGCCUCCAAA

Settings in all cases: with glucosamine-6-phosphate
Variants of B1 are the subject of data set [1]. Briefly: kcat; higher = faster cleavage; RNA array. A digest of the protocol:
(§1)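 Ribozyme variants carrying barcodes were transcribed in situ on sequenced MiSeq chips by E. coli RNA polymerase and tracked at 37 °C with a hybridised Cy3 probe. They were exposed to 40 μM to 10 mM glucosamine-6-phosphate in HEPES/KCl/Mg(OAc)2 buffer. kobs came from exponential decay fits of normalised per-tile medians, and kcat and KM from weighted Michaelis–Menten fits.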

In data set [2] the parent is B1. Put plainly: self-cleavage kobs at 160 uM GlcN6P; higher = faster cleavage; RNA array. A digest of the protocol: as §1
Data set [3] covers variants of B1. Briefly: self-cleavage kobs at 2500 uM GlcN6P; higher = faster cleavage; RNA array. In outline: as §1
The variants in data set [4] derive from B1. Put plainly: self-cleavage kobs at 10000 uM GlcN6P; higher = faster cleavage; RNA array. A digest of the protocol:
as §1

Data set [5] covers variants of B1. Briefly: self-cleavage kobs at 40 uM GlcN6P; higher = faster cleavage; RNA array. A digest of the protocol: as §1
The variants in data set [6] derive from B1. Put plainly: self-cleavage kobs at 640 uM GlcN6P; higher = faster cleavage; RNA array. A digest of the protocol:
as §1

Variants of B1 are the subject of data set [7]. Put plainly: KM; higher = weaker cofactor use; RNA array. In outline: as §1

For G37A G44U, the turnover number (kcat) (as a rule, the number of substrate molecules converted per active site and unit of time at saturation) with glucosamine-6-phosphate [1] amounted to 8.09e-05 ± 2.1e-05 s⁻¹. Moreover, the “self-cleavage kobs at 160 uM GlcN6P” value with glucosamine-6-phosphate [2] is below 1e-05 s⁻¹. Besides, in the data set with glucosamine-6-phosphate [3], the “self-cleavage kobs at 2500 uM GlcN6P” value is 4.71e-05 ± 9.1e-06 s⁻¹. The “self-cleavage kobs at 10000 uM GlcN6P” value with glucosamine-6-phosphate [4] is 5.95e-05 ± 2.3e-05 s⁻¹.

Regarding A12G G41C, the turnover number (kcat) with glucosamine-6-phosphate [1] is 0.000171 ± 2.4e-05 s⁻¹. Moreover, the “self-cleavage kobs at 40 uM GlcN6P” value in the data set with glucosamine-6-phosphate [5] was below 1e-05 s⁻¹. The “self-cleavage kobs at 2500 uM GlcN6P” value with glucosamine-6-phosphate [3] was determined as 3.14e-05 ± 1.1e-05 s⁻¹. The “self-cleavage kobs at 10000 uM GlcN6P” value with glucosamine-6-phosphate [4] worked out at 8.02e-05 ± 1.1e-05 s⁻¹.

In the case of C34U G38A C71U, the kcat in the data set with glucosamine-6-phosphate [1] was below 1e-05 s⁻¹. In addition, the “self-cleavage kobs at 40 uM GlcN6P” value with glucosamine-6-phosphate [5] was below 1e-05 s⁻¹. Besides, in the data set with glucosamine-6-phosphate [2], the “self-cleavage kobs at 160 uM GlcN6P” value was below 1e-05 s⁻¹. In addition, the “self-cleavage kobs at 2500 uM GlcN6P” value with glucosamine-6-phosphate [3] was below 1e-05 s⁻¹.

Regarding U57G C68U, the kcat in the data set with glucosamine-6-phosphate [1] came out at 3.41e-05 ± 1.5e-05 s⁻¹. In addition, in the data set with glucosamine-6-phosphate [5], the “self-cleavage kobs at 40 uM GlcN6P” value was below 1e-05 s⁻¹. Besides, the “self-cleavage kobs at 640 uM GlcN6P” value with glucosamine-6-phosphate [6] was 3.46e-05 ± 1.4e-05 s⁻¹. In addition, the “self-cleavage kobs at 2500 uM GlcN6P” value with glucosamine-6-phosphate [3] was determined as 6.22e-05 ± 1.2e-05 s⁻¹. The “self-cleavage kobs at 10000 uM GlcN6P” value with glucosamine-6-phosphate [4] amounted to 1.92e-05 ± 8.6e-06 s⁻¹.

As for U30G G38U, in the data set with glucosamine-6-phosphate [1], the catalytic constant (kcat) is below 1e-05 s⁻¹. In addition, the Michaelis-Menten constant (KM) (commonly the substrate concentration at which the rate is half of its maximum) with glucosamine-6-phosphate [7] came out at 87.6 ± 41 µM.

Take U56G C58G: the kcat with glucosamine-6-phosphate [1] came out at 0.000173 ± 4.6e-06 s⁻¹. The Michaelis-Menten constant (KM) in the data set with glucosamine-6-phosphate [7] was 1800 ± 110 µM. For the same variant, the “self-cleavage kobs at 640 uM GlcN6P” value with glucosamine-6-phosphate [6] amounted to 4.42e-05 ± 1e-05 s⁻¹. In addition, the “self-cleavage kobs at 2500 uM GlcN6P” value in the data set with glucosamine-6-phosphate [3] turned out to be 0.000103 ± 1.4e-05 s⁻¹. Also, the “self-cleavage kobs at 10000 uM GlcN6P” value with glucosamine-6-phosphate [4] stood at 0.000145 ± 2.1e-05 s⁻¹.

For A53G C71A, in the data set with glucosamine-6-phosphate [1], the catalytic constant (kcat) amounted to 0.00448 ± 0.002 s⁻¹. For the same variant, the “self-cleavage kobs at 40 uM GlcN6P” value with glucosamine-6-phosphate [5] is 0.000374 ± 4.3e-05 s⁻¹. The “self-cleavage kobs at 160 uM GlcN6P” value with glucosamine-6-phosphate [2] is 0.00085 ± 0.00013 s⁻¹. Moreover, the “self-cleavage kobs at 640 uM GlcN6P” value with glucosamine-6-phosphate [6] worked out at 0.00169 ± 0.00037 s⁻¹. Besides, in the data set with glucosamine-6-phosphate [3], the “self-cleavage kobs at 2500 uM GlcN6P” value was 0.00297 ± 0.0007 s⁻¹. For the same variant, the “self-cleavage kobs at 10000 uM GlcN6P” value with glucosamine-6-phosphate [4] is 0.00857 ± 0.0012 s⁻¹.

As to U49A U69G, the turnover number (kcat) with glucosamine-6-phosphate [1] stood at 5.15e-05 ± 2.2e-05 s⁻¹. Further, the “self-cleavage kobs at 640 uM GlcN6P” value with glucosamine-6-phosphate [6] worked out at 4.76e-05 ± 1.8e-05 s⁻¹. Further, in the data set with glucosamine-6-phosphate [3], the “self-cleavage kobs at 2500 uM GlcN6P” value worked out at 8.54e-05 ± 1.8e-05 s⁻¹.

As for U47C U57A, in the data set with glucosamine-6-phosphate [1], the catalytic constant (kcat) was found to be 0.000495 ± 0.00012 s⁻¹. For the same variant, the “self-cleavage kobs at 2500 uM GlcN6P” value with glucosamine-6-phosphate [3] came to 2.94e-05 ± 1.3e-05 s⁻¹. In addition, the “self-cleavage kobs at 10000 uM GlcN6P” value with glucosamine-6-phosphate [4] was determined as 0.0001 ± 2.7e-05 s⁻¹.

Regarding A15G U65A, in the data set with glucosamine-6-phosphate [1], the catalytic constant (kcat) was determined as 0.00646 ± 0.0018 s⁻¹. The KM with glucosamine-6-phosphate [7] came out at 3290 ± 1300 µM. Also, in the data set with glucosamine-6-phosphate [5], the “self-cleavage kobs at 40 uM GlcN6P” value turned out to be 9.64e-05 ± 1.3e-05 s⁻¹. In the data set with glucosamine-6-phosphate [2], the “self-cleavage kobs at 160 uM GlcN6P” value was determined as 0.000343 ± 0.00011 s⁻¹. For the same variant, the “self-cleavage kobs at 640 uM GlcN6P” value in the data set with glucosamine-6-phosphate [6] worked out at 0.000867 ± 0.00018 s⁻¹. Further, in the data set with glucosamine-6-phosphate [3], the “self-cleavage kobs at 2500 uM GlcN6P” value came out at 0.00193 ± 0.00048 s⁻¹. Besides, the “self-cleavage kobs at 10000 uM GlcN6P” value with glucosamine-6-phosphate [4] was found to be 0.00545 ± 0.00064 s⁻¹.

Turning to C11U C70U, the catalytic constant (kcat) in the data set with glucosamine-6-phosphate [1] worked out at 0.000987 ± 0.00026 s⁻¹. In the data set with glucosamine-6-phosphate [7], the Michaelis-Menten constant (KM) turned out to be 772 ± 320 µM. The “self-cleavage kobs at 40 uM GlcN6P” value with glucosamine-6-phosphate [5] was found to be 5.88e-05 ± 6.9e-06 s⁻¹. Further, in the data set with glucosamine-6-phosphate [2], the “self-cleavage kobs at 160 uM GlcN6P” value amounted to 0.000165 ± 2.1e-05 s⁻¹. Also, the “self-cleavage kobs at 640 uM GlcN6P” value in the data set with glucosamine-6-phosphate [6] was determined as 0.000397 ± 3.7e-05 s⁻¹. In the data set with glucosamine-6-phosphate [3], the “self-cleavage kobs at 2500 uM GlcN6P” value stood at 0.000735 ± 9.1e-05 s⁻¹. For the same variant, the “self-cleavage kobs at 10000 uM GlcN6P” value with glucosamine-6-phosphate [4] amounted to 0.00165 ± 0.00027 s⁻¹.

Consider A15C C58G, for which the turnover number (kcat) with glucosamine-6-phosphate [1] came out at 0.000128 ± 2.1e-05 s⁻¹. Further, the “self-cleavage kobs at 640 uM GlcN6P” value with glucosamine-6-phosphate [6] is 4.09e-05 ± 1.2e-05 s⁻¹. In the data set with glucosamine-6-phosphate [3], the “self-cleavage kobs at 2500 uM GlcN6P” value is 5.08e-05 ± 1.8e-05 s⁻¹. In the data set with glucosamine-6-phosphate [4], the “self-cleavage kobs at 10000 uM GlcN6P” value was determined as 0.000111 ± 1.4e-05 s⁻¹.

Regarding A33C A53U, the catalytic constant (kcat) with glucosamine-6-phosphate [1] came out at 0.000206 ± 3.2e-05 s⁻¹. For the same variant, the “self-cleavage kobs at 640 uM GlcN6P” value with glucosamine-6-phosphate [6] is 7.53e-05 ± 1.6e-05 s⁻¹. Further, the “self-cleavage kobs at 2500 uM GlcN6P” value in the data set with glucosamine-6-phosphate [3] was 0.000246 ± 5.8e-05 s⁻¹. Also, the “self-cleavage kobs at 10000 uM GlcN6P” value in the data set with glucosamine-6-phosphate [4] worked out at 0.000182 ± 1.9e-05 s⁻¹.

As to U56A G66U, in the data set with glucosamine-6-phosphate [1], the kcat was 0.000875 ± 6.7e-05 s⁻¹. Moreover, the KM with glucosamine-6-phosphate [7] was found to be 2780 ± 350 µM. In addition, the “self-cleavage kobs at 160 uM GlcN6P” value with glucosamine-6-phosphate [2] was 5.15e-05 ± 8.2e-06 s⁻¹. For the same variant, in the data set with glucosamine-6-phosphate [6], the “self-cleavage kobs at 640 uM GlcN6P” value came out at 0.000164 ± 1.8e-05 s⁻¹. Further, the “self-cleavage kobs at 2500 uM GlcN6P” value with glucosamine-6-phosphate [3] came out at 0.000378 ± 4.5e-05 s⁻¹. Moreover, the “self-cleavage kobs at 10000 uM GlcN6P” value in the data set with glucosamine-6-phosphate [4] turned out to be 0.000712 ± 6.7e-05 s⁻¹.

Consider U55C U57C, for which the kcat in the data set with glucosamine-6-phosphate [1] is 9.84e-05 ± 1.9e-05 s⁻¹. Moreover, in the data set with glucosamine-6-phosphate [3], the “self-cleavage kobs at 2500 uM GlcN6P” value was found to be 8.25e-05 ± 1.9e-05 s⁻¹. In the data set with glucosamine-6-phosphate [4], the “self-cleavage kobs at 10000 uM GlcN6P” value was determined as 8.27e-05 ± 1.2e-05 s⁻¹.

In the case of G37A G41U, the catalytic constant (kcat) with glucosamine-6-phosphate [1] was 0.000119 ± 2.1e-05 s⁻¹. Further, the “self-cleavage kobs at 640 uM GlcN6P” value in the data set with glucosamine-6-phosphate [6] worked out at 4.8e-05 ± 1.3e-05 s⁻¹. In addition, the “self-cleavage kobs at 2500 uM GlcN6P” value with glucosamine-6-phosphate [3] was determined as 0.000126 ± 1.7e-05 s⁻¹. Moreover, the “self-cleavage kobs at 10000 uM GlcN6P” value with glucosamine-6-phosphate [4] is 0.0001 ± 1.2e-05 s⁻¹.
